Legend:
[1] = target: human melanocortin-5 receptor (human) (UniProt P33032)
[2] = target: human melanocortin-1 receptor (human) (UniProt Q01726)
[3] = target: human melanocortin-3 receptor (human) (UniProt P41968)
human melanocortin-3 receptor (human), sequence (P41968 whole entry): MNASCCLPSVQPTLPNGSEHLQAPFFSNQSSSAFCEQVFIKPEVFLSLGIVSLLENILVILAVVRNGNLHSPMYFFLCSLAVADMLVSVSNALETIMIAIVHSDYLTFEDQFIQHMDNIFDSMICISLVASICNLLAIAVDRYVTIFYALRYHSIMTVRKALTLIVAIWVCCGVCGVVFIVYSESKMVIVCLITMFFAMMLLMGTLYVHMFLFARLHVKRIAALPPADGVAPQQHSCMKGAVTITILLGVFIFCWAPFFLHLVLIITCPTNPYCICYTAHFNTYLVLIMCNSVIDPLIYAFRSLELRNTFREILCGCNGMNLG

human melanocortin-1 receptor (human), sequence (Q01726 whole entry): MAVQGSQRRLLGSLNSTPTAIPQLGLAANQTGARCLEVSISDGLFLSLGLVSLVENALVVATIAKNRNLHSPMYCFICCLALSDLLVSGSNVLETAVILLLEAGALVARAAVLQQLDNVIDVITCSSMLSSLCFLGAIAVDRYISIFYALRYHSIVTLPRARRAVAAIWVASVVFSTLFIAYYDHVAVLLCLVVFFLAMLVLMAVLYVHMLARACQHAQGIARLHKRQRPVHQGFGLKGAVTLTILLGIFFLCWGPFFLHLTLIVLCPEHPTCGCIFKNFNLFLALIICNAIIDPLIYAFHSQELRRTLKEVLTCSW
human melanocortin-5 receptor (human), sequence (P33032 whole entry): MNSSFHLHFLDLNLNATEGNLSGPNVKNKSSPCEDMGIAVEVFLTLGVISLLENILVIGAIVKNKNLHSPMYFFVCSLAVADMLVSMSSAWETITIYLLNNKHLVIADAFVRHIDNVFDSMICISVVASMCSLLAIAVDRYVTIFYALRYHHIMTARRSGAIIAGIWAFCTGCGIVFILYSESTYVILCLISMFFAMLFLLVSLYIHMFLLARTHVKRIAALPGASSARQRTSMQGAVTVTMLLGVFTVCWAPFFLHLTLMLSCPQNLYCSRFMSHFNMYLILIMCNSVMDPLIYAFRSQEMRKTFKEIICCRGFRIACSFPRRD

agonist potency (EC50), cAMP split-luciferase sensor dynamic assay [1]	agonist potency (EC50), cAMP split-luciferase sensor dynamic assay [2]	agonist potency (EC50), cAMP split-luciferase sensor dynamic assay [3]	Substance
4.1 nM	1.2 nM	–	analogue 13 (Tyr-Val-Nle-Gly-Pro-D-Nal(2′)-Arg-Trp-Asp-Arg-Phe-Gly-NH2) (peptide)
3.8 nM	0.16 nM	6.2 nM	analogue 11 (Tyr-Val-Nle-Gly-His-D-Nal(2′)-Arg-Trp-Asp-Arg-Phe-Gly-NH2) (peptide)
